From the supplement of paper PMC10567573

B1: RAB11A (parent)
chain: AVPTDEARAFAEKNGLSFIETSAL

Variants of: B1
Assay: protein stability index of a GFP-peptide fusion (GPS, HEK-293T) (PSI 1-6); higher = more stable
Conditions: c terminus: a fixed tail appended
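Also: lentivirally expressed fusions sorted by FACS into six bins by GFP to DsRed ratio, PSI derived from sequencing read proportions per bin multiplied by bin number.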

| Variant | protein stability index |
| --- | --- |
| AVPTDEAREFAEKNGLSFIETSAL | 3.13 |
| AVPTDEARQFAEKNGLSFIETSAL | 2.62 |
| AVPTDEARSFAEKNGLSFIETSAL | 2.35 |
| AVPTDEARYFAEKNGLSFIETSAL | 2.11 |
| AVPTDEARWFAEKNGLSFIETSAL | 2.27 |
| AVPTDEARTFAEKNGLSFIETSAL | 2.96 |
| AVPTDEARHFAEKNGLSFIETSAL | 1.97 |
| AVPTDEARAFAEKNGLSWIETSAL | 3.46 |
| AVPTDEARAFAEKNGLSEIETSAL | 4.57 |
| AVPTDEARAFAEKNGLSTIETSAL | 4.32 |
| AVPTDEARAFAEKNGLSKIETSAL | 4.2 |
| AVPTDEARAFAEKNGLSMIETSAL | 3.93 |
| AVPTDEARAFAEKNGFSFIETSAL | 1.91 |
| AVPTDEARAFAEKNGGSFIETSAL | 4.35 |
| AVPTDEARAFAEKNGRSFIETSAL | 3.8 |
| AVPTDEARAFAEKNGNSFIETSAL | 4.05 |
| AVPTDEARAFAEKNGYSFIETSAL | 3.14 |
| AVPTDEARAFAEKNGTSFIETSAL | 4.14 |
| AVPTDEARAFAEKNGDSFIETSAL | 4.87 |
| AVPTDEARAFAEKNGQSFIETSAL | 4.2 |
| AVPTDEARAFAEKNGASFIETSAL | 4.51 |
| AVPTDEARAFAEKVGLSFIETSAL | 1.85 |
| AVPTDEARAFAEKTGLSFIETSAL | 2.39 |
| AVPTDEARAFAEKHGLSFIETSAL | 2.36 |

| Variant | protein stability index |
| --- | --- |
| AVPTDEARAFAEKSGLSFIETSAL | 2.95 |
| AVPTDEARAFAEKRGLSFIETSAL | 2.52 |
| AVPTDEARAFAEKEGLSFIETSAL | 3.54 |
| AVPTDEARAFAEKGGLSFIETSAL | 2.15 |
| AVPTDEARAFAEKAGLSFIETSAL | 1.96 |
| AVPTDEARAFAEKMGLSFIETSAL | 1.92 |
| AVPTDEARAFAEKLGLSFIETSAL | 2.03 |
| AVPTDEARAFAEKYGLSFIETSAL | 2.17 |
| AVPHDEARAFAEKNGLSFIETSAL | 2.6 |
| AVPNDEARAFAEKNGLSFIETSAL | 2.22 |
| AVPQDEARAFAEKNGLSFIETSAL | 2.84 |
| AVPGDEARAFAEKNGLSFIETSAL | 2.52 |
| AVPFDEARAFAEKNGLSFIETSAL | 2.06 |
| AVPSDEARAFAEKNGLSFIETSAL | 2.23 |
| AVPRDEARAFAEKNGLSFIETSAL | 2.02 |
| AVPPDEARAFAEKNGLSFIETSAL | 2.43 |
| AVPTDEARAFAEKNGLSFIEESAL | 4.34 |
| AVPTDEARAFAEKNGLSFIEKSAL | 3.37 |
| AVPTDEARAFAEKNGLSFIEFSAL | 2.37 |
| AVPTDEARAFAEKNGLSFIEWSAL | 2.39 |
| AVPTDEARAFAEKNGLSFIEQSAL | 3.75 |
| AVPTDEARAFAEKNGLSFIERSAL | 2.5 |
| AVPTDEARAFAEKNGLSFIEVSAL | 2.12 |
| AVPTDEARAFAEKNGLSFIELSAL | 2.46 |

| Variant | protein stability index |
| --- | --- |
| AVPTDEARAFAEKNGLSFIENSAL | 2.47 |
| AVPTDEARAFAEKNGLSFIEMSAL | 2.64 |
| AVPTDEARAFAVKNGLSFIETSAL | 2.3 |
| AVPTDEARAFAAKNGLSFIETSAL | 2.07 |
| AVPTDEARAFALKNGLSFIETSAL | 1.75 |
| AVPTDEARAFASKNGLSFIETSAL | 2.01 |
| AVPTDEARAFAPKNGLSFIETSAL | 1.88 |
| AVPTDEARAFAFKNGLSFIETSAL | 1.69 |
| AVPTDEARAFAIKNGLSFIETSAL | 1.39 |
| AVPTDEARAFAMKNGLSFIETSAL | 1.54 |
| AVPTDEARAFATKNGLSFIETSAL | 1.46 |
| AVPTDEARAFAHKNGLSFIETSAL | 1.96 |
| AVPTDEARAFAQKNGLSFIETSAL | 1.77 |
| AVPTDEARAFACKNGLSFIETSAL | 2.85 |
| AVPTDEARAFAEKNGLSFPETSAL | 4.5 |
| AVPTDEARAFAEKNGLSFLETSAL | 3.71 |
| AVPTDEARAFAEKNGLSFEETSAL | 4.24 |
| AVPTDEARAFAEKNGLSFHETSAL | 2.46 |
| AVPTDEARAFAEKNGLSFAETSAL | 4.39 |
| AVPTDEARAFAEKNGLSFTETSAL | 4.17 |
| AVPTDWARAFAEKNGLSFIETSAL | 2.07 |
| AVPTDVARAFAEKNGLSFIETSAL | 1.83 |
| AVPTDYARAFAEKNGLSFIETSAL | 1.88 |
| AVPTDIARAFAEKNGLSFIETSAL | 1.73 |

| Variant | protein stability index |
| --- | --- |
| AVPTDMARAFAEKNGLSFIETSAL | 2.15 |
| AVPTDAARAFAEKNGLSFIETSAL | 1.94 |
| AVPTDTARAFAEKNGLSFIETSAL | 1.71 |
| AVPTDQARAFAEKNGLSFIETSAL | 2.52 |
| AVPTDEARAFAEKNGLIFIETSAL | 2.73 |
| AVPTDEARAFAEKNGLCFIETSAL | 2.52 |
| AVPTDEARAFAEKNGLAFIETSAL | 2.53 |
| AVPTDEARAFAEKNGLHFIETSAL | 3.19 |
| AVPTDEARAFAEKNGLGFIETSAL | 3.53 |
| AVPTDEAPAFAEKNGLSFIETSAL | 1.86 |
| AVPTDEACAFAEKNGLSFIETSAL | 2.32 |
| AVPTDEALAFAEKNGLSFIETSAL | 2.16 |
| AVPTDEAGAFAEKNGLSFIETSAL | 2.63 |
| AVPTDEAHAFAEKNGLSFIETSAL | 2.7 |
| AVPTDEAIAFAEKNGLSFIETSAL | 2.59 |
| GVPTDEARAFAEKNGLSFIETSAL | 2.77 |
| KVPTDEARAFAEKNGLSFIETSAL | 2.8 |
| VVPTDEARAFAEKNGLSFIETSAL | 2.49 |
| WVPTDEARAFAEKNGLSFIETSAL | 1.8 |
| EVPTDEARAFAEKNGLSFIETSAL | 2.72 |
| YVPTDEARAFAEKNGLSFIETSAL | 2.23 |
| RVPTDEARAFAEKNGLSFIETSAL | 2.46 |
